Assay results from the supplement of paper PMC9170038.

System: MS2 coat protein
Assay: apparent KD of MS2 coat protein; designed switch direction (-1 OFF switch, 1 ON switch): -1; higher = weaker reporter binding
In short: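 An oligonucleotide input, 200 uM small-molecule ligand, or no input was present during titration of SNAP-549-labelled MS2 coat protein, which was doubled from 0.7 or 1.5 nM to 3 µM. Designed RNA switches had been transcribed on Illumina chips by stalled E. coli RNA polymerase. Apparent KD per design is the median over clusters of curves fitted to normalised cluster fluorescence.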

[1] = input ligand: microRNA oligo, concentration not stated
[2] = Eterna round: R95, input ligand: FMN 200 uM
[3] = Eterna round: R95, input ligand: microRNA oligo, concentration not stated
[4] = Eterna round: R95, input ligand: none

Sequence	apparent KD of MS2 coat protein (input ligand: FMN 200 uM)	apparent KD of MS2 coat protein (input ligand: none)	apparent KD of MS2 coat protein [1]	apparent KD of MS2 coat protein [2]	apparent KD of MS2 coat protein [3]	apparent KD of MS2 coat protein [4]
UUGUGCACGCUGCGGUCCUACAUGAGGAUCACCCAUGUGGUCUGGUGGCGUGGGUCACCGGACUUGGCUCGUCUUGU [salish99_S_TOV1_R5_060] (Eterna round: R97, puzzle: Sensor, turn-off variant 1)	36.2 nM	42.3 nM				
UUGUUACAUGAGGAUCACCCAUGUGAGGAUAUGGUUCAGUACUGUCAUGUCAAGUACUCCAGAAGGCACAUGUU [1st #30] (Eterna round: R97, puzzle: Exclusion 1)	566 nM	508 nM				
UUGUUACGAUUAGGAUAUUAUUGAUUGGACAGUAUGAUUUACAUGAGGAUCACCCAUGUUACUUUUAAGAAGGAAUCGUAUUAU [JR_ExcNG2_Sub090] (Eterna round: R96, puzzle: Exclusion NG 2)			14.8 nM			
UUGUUAUAUGUAGGAUAUGCAUAUUAUUAUUAUGCAGAAGGACAUGAGGAUCACCCAUGUAUAUUAUUGUUAUAUGUUAUAUAU [Title] (Eterna round: R96, puzzle: Exclusion NG 1)			16.6 nM			
UUGUUAUAUGUAGGAUAUGCGUGUUAUUAUUAGGCAGAAGGACAUGAGGAUCACCCAUGUAUGUUGUUGUUAUAUAUUAUAUAU [Title] (Eterna round: R96, puzzle: Exclusion NG 1)	22.9 nM	25.6 nM	17.8 nM			
UUGUUCCAUGUAGGAUAUGCAUAUUCUCAUUAUGCAGAAGGACAUGAGGAUCACCCAUGUAUGUUAUUAUUAUAUGUUACAUGU [Design 2] (Eterna round: R96, puzzle: Exclusion NG 1)	613 nM	78.5 nM	54.6 nM			
UUGUUGUAUGUAGGAUAUGCAUGUUAUUAUUAUGCAGAAGGACAUGAGGAUCACCCAUGUAUAUUAUUAUUAUAUGUUAUAUAU [Title] (Eterna round: R96, puzzle: Exclusion NG 1)	22.2 nM	23.9 nM	17.9 nM			
UUUAAAACAUAGGAUAUCGAAUUAAUCAUUUAACGAGAAGGAUGAACAUGAGGAUCACCCAUGUGGUAUCAUGG [Mat - Exclusion 6 - JL Mod - D19] (puzzle: Exclusion 6)				282 nM	274 nM	270 nM
UUUAAGGCUGAGGAUAUGUGGUCCGCCAAAGACAUAGAAGGUAGCACAUGAGGAUCACCCAUGUCACGAAAAGU [Eternabot (L1) Solution 81] (Eterna round: R97, puzzle: Exclusion 6)	54.3 nM	52.7 nM				
UUUAAGUCAGGAUAUCGUUAAUUUAAUAAAUAAAUUUAAUUCGAGAAGGGACAUGAGGAUCACCCAUGUAAUUU [Ex4 #1] (Eterna round: R97, puzzle: Exclusion 4)	45.5 nM	34.8 nM				
UUUAAUCGUGACAUGGGUGACAUGAGGAUCACCCAUGUCACAAGCUUCUCGCUCGUCUUAUAAUUAACCCAUGUCAC [LRO Sensor-off var1-13 mod of Stov1-13-A1 by Brourd] (Eterna round: R97, puzzle: Sensor, turn-off variant 1)	17.3 nM	18.7 nM				
UUUAAUUUUUUUUUUUUACAAGCUUUUUGCUCGUCUUAUACAUGAGGAUCACCCAUGUAGGUGAAGGAUAAAUUAUC [JMF 27] (puzzle: Sensor v3, turn-off variant 2)				25.9 nM	66.4 nM	35.9 nM
UUUAAUUUUUUUUUUUUACAAGCUUUUUGCUCGUCUUAUACAUGAGGAUCACCCAUGUGAAUGGGAGGUAAAUUAUC [JMF 73] (puzzle: Sensor v3, turn-off variant 2)				175 nM	192 nM	116 nM
UUUAAUUUUUUUUUUUUACAAGCUUUUUGCUCGUCUUAUACAUGAGGAUCACCCAUGUGAGUGGGAAGUAAAUUAUC [JMF 55] (puzzle: Sensor v3, turn-off variant 2)				20.5 nM	248 nM	19.9 nM
UUUAAUUUUUUUUUUUUACAAGCUUUUUGCUCGUCUUAUACAUGAGGAUCACCCAUGUGGGUGGAAAGUAAAUUAUC [JMF 47] (puzzle: Sensor v3, turn-off variant 2)				38.9 nM	96.3 nM	56.2 nM
UUUACAAGCUAAUGAUCCCACAUGAGGAUCACCCAUGUUGCUGCCGGUGACGGUAGCAUAACAUUUGCUCGUCUUAU [JL TOV1 3.58] (Eterna round: R97, puzzle: Sensor, turn-off variant 1)	1180 nM	1010 nM				
UUUACAAGCUUAAGAUCCCACAUGAGGAUCACCCAUGUUGCUGCCGUGAGGUAGCUUUUAACUUAUGCUCGUCUUAU [JL TOV1 3.42] (Eterna round: R97, puzzle: Sensor, turn-off variant 1)	94 nM	110 nM				
UUUAGUUCAGGAUAUGUAGACAUUAACAUGAGGAUCACCCAUGUAGAUCCUGAAUUGGCUACAGAAGGGAGCAUUU [Mod of Brourd 10 - Jieux - Exclusion 5] (Eterna round: R97, puzzle: Exclusion 5)	109 nM	28.4 nM				

Sequence	apparent KD of MS2 coat protein (input ligand: FMN 200 uM)	apparent KD of MS2 coat protein (input ligand: none)	apparent KD of MS2 coat protein [1]	apparent KD of MS2 coat protein [2]	apparent KD of MS2 coat protein [3]	apparent KD of MS2 coat protein [4]
UUUAGUUCAGGAUAUGUAGAUUUAAACAUGAGGAUCACCCAUGUAGAUCCUGAUCCUGCUACAGAAGGGAACAUUU [Exclusion 5: 2:a mod1] (Eterna round: R97, puzzle: Exclusion 5)	72.9 nM	24.3 nM				
UUUAUCCGAGGAUAUACAGAAUGAAUGUGAAAUGAAUGAUGACAUGAGGAUCACCCAUGUAGAAGGCGGAUAUA [Default title] (Eterna round: R97, puzzle: Exclusion 2)	404 nM	57.8 nM				
UUUAUGUCAGGAUAUGAGGAGUAGAACAAUAGUACUACUCCUCAGAAGGGACAUGAGGAUCACCCAUGUUCCUC [Fiskers Ex 4 Super stable 44 mod 25] (puzzle: Exclusion 4)					18.5 nM	
UUUCGUGCGCGGGUUUUUUACAUGAGGAUCACCCAUGUCCUCUGCUUGUCUUGUCUUGGGCUUUUUUUGGGUUCGGG [-19.7, -39 kcal, A 8%] (Eterna round: R97, puzzle: Sensor, turn-off variant 1)	771 nM	868 nM				
UUUGAUUAAGUGAGGAUAUACUGUUUGUAUUGAUUGUAGAAGGUACAUGAGGAUCACCCAUGUUUAGUAUUUAU [JR_BME4_Sub037] (puzzle: Brourd's mod of Exclusion 4)					19.2 nM	
UUUGCAAGCUAAAGAUCCCACAUGAGGAUCACCCAUGUUGCUGCCGUGAGGUAGCUUUUAACUUUUGCUCGUCUUAU [JL TOV1 3.44] (Eterna round: R97, puzzle: Sensor, turn-off variant 1)	183 nM	217 nM				
UUUGUAUAUGAAGGAUAUACUUAACAUGAGGAUCACCCAUGUGGUGUUGUGAGUGAGUGAGUUUAGUAGAAGGUCAAUGAUUUU [JMF's solution 71] (Eterna round: R96, puzzle: Exclusion NG 2)	531 nM	317 nM	218 nM			
UUUGUCUGUGUGAGGAUAUACUUGUUUGGGUUUUUGUAGAAGGCACAUGAGGAUCACCCAUGUAUUUUGUCGUG [JR_BME4_Sub018] (Eterna round: R96, puzzle: Brourd's mod of Exclusion 4)	77.7 nM	41.9 nM	34.1 nM			
UUUGUCUGUGUGAGGAUAUACUUGUUUGGGUUUUUGUAGAAGGCACAUGAGGAUCACCCAUGUAUUUUGUCGUG [JR_BME4_Sub018] (puzzle: Brourd's mod of Exclusion 4)					36.7 nM	
UUUGUUUAUGUAGGAUAUGCCUGGCGUGCCUUCGCAGAAGGACAUGAGGAUCACCCAUGUAUUGCGGUCUGCGUUCAGAUCGCC [salish99_ExNG1_r4_028] (Eterna round: R96, puzzle: Exclusion NG 1)	22.6 nM	21 nM	16.1 nM			
UUUGUUUAUGUAGGAUAUGCCUGGCGUGCCUUUGCAGAAGGACAUGAGGAUCACCCAUGUAACAUGAGGCUCACCCAUGUCGCA [salish99_ExNG1_r04_110] (Eterna round: R96, puzzle: Exclusion NG 1)	682 nM	645 nM	453 nM			
UUUGUUUGGUAGGAUAUCAACUAAGAGAGUGGCUGAGAAGGACCAACAUGAGGAUCACCCAUGUCGGUUCCGUU [EX6 C.15] (Eterna round: R97, puzzle: Exclusion 6)	16.2 nM	14.8 nM				
UUUUAACAUGAGGAUCACCCAUGUGAGGAUAUCGAAAUUUAUAUUAAUAUUAUUAUUUCGAGAAGGCACAUUUU [JMF 41] (puzzle: Exclusion 1)					155 nM	
UUUUAACAUGAGGAUCACCCAUGUGAGGAUAUCGAAAUUUAUAUUAAUAUUUUUAAUUCGAGAAGGCACAUUUU [JMF 69] (puzzle: Exclusion 1)					136 nM	
UUUUAACAUGAGGAUCACCCAUGUGAGGAUAUCGAAAUUUAUAUUUAUAUUAAUAAAACGAGAAGGCACAUUUU [JMF 75] (puzzle: Exclusion 1)				119 nM	70.4 nM	87.4 nM
UUUUAACAUGAGGAUCACCCAUGUGAGGAUAUCGAAAUUUAUAUUUAUAUUAAUAUUUCGAGAAGGCACAUUUU [JMF 81] (puzzle: Exclusion 1)					176 nM	
UUUUAACAUGAGGAUCACCCAUGUGAGGAUAUCGAAAUUUAUAUUUAUAUUUAUAUUACGAGAAGGCACAUUUU [JMF 98] (puzzle: Exclusion 1)					84.3 nM	
